{"source": "patent US7205150B2", "about": "“Transgenic plants over-expressing plant ADP-glucose pyrophosphatase” (Universidad Publica de Navarra, priority 2000, dated 2007)", "key": {"[1]": {"test_system": "AGPPase (soluble and particulate isoforms)", "experiment": "AGPPase enzymatic assay (two-step spectrophotometric determination of G1P produced from ADPG)", "type": "biochemical, barley (Hordeum vulgare), tomato (Lycopersicon sculentum)"}, "[2]": {"experiment": "Stability of AGPPase to pH and temperature", "type": "physicochemical", "conditions": "65° C. for 30 minutes"}}}
{"molecule": "K proteinase: protease (Boehringer) (protein, UniProt P06873 106-384, looked up) Proteinase K: AAQTNAPWGLARISSTSPGTSTYYYDESAGQGSCVYVIDTGIEASHPEFEGRAQMVKTYYYSSRDGNGHGTHCAGTVGSRTYGVAKKTQLFGVKVLDDNGSGQYSTIIAGMDFVASDKNNRNCPKGVVASLSLGGGYSSSVNSAAARLQSSGVMVAVAAGNNNADARNYSPASEPSVCTVGASDRYDRRSSFSNYGSVLDIFGPGTSILSTWIGGSTRSISGTSMATPHVAGLAAYLMTLGKTTAASACRYIADTANKGDLSNIPFGTVNLLAYNNYQA", "values": [{"measurement": "Resistance of AGPPase to ionic detergents and proteases", "setting": "[1]", "result": "resistant"}]}
{"molecule": "Soluble AGPPase: soluble isoform of AGPPase purified from barley leaves, a germin-like glycoprotein (protein, Hordeum vulgare cv. Scarlett; Soluble AGPPase deduced from cDNA, soluble isoform of AGPPase purified from barley leaves, a germin-like glycoprotein) MANAMLLPVLVSFLVLPFSAMALTQDFCVADLSCSDTPAGYPCKTGVGAGDFYYHGLAAAGNTSNLIKAAVTPAFVGQFPGVNGLGISAARLDIAVGGVVPMHTHPAASELLFVTEGTILAGFISSSSNTVYTKTLYKGDIMVFPQGLLHYQYNGGSSSAVALVAFSGPNPGLQITDYALFANNLPSAVVEKVTFLDDAQVKKLKSVLGGSG", "values": [{"measurement": "Heat resistance of soluble AGPPase", "setting": "[2]", "result": "resistant"}]}
